Our source for the Inhibition of binding (%) and % inhibition of TSH-biotin binding values is patent US20110300138A1 (published 2011).

The target in experiment [1] is TSHR (thyroid stimulating hormone receptor), full length human (human) (UniProt P16473). The experiment can be described thus: competitor ^125I-K1-70 IgG, TSHR coated tubes; 1 µg/mL in HBD.
The target of experiment [2] is TSH receptor (TSHR), full length human, coated on tubes (human) (UniProt P16473). Put plainly: inhibition of 125I-TSH binding to TSHR coated tubes; 0.01 µg/mL, diluted in assay buffer.
For experiment [3], the target named is thyroid stimulating hormone receptor (TSHR), full length human TSHR (human) (UniProt P16473). Put plainly: TSH-biotin competition ELISA, TSHR coated wells; 10 µg/mL in HBD serum. In general terms: In an ELISA, binding on a coated surface is turned into a signal by an enzyme label.
Experiment [4] shares this target. The experiment can be described thus: TSH-biotin competition ELISA, TSHR coated wells; 1 µg/mL in HBD serum.
Experiment [5] addresses TSHR (full length) coated on tubes (human) (UniProt P16473). Put plainly: inhibition of 125I-K1-18 Fab (competitor) binding to TSHR coated tubes; test sample 0.01 µg/mL in HBD serum.
The target of experiment [6] is TSH receptor (TSHR), full length human, coated on tubes (human) (UniProt P16473). Put plainly: inhibition of 125I-K1-18 IgG binding to TSHR coated tubes; competitor 125I-K1-18 IgG; sample at 1 µg/mL in HBD serum.
Experiment [7] addresses thyroid stimulating hormone receptor (TSHR), full length human TSHR (human) (UniProt P16473). Put plainly: TSH-biotin competition ELISA, TSHR coated wells; 0.01 µg/mL in HBD serum.
Experiment [8] concerns the target TSH receptor (TSHR), full length human, coated on tubes (human) (UniProt P16473). Put plainly: inhibition of 125I-TSH binding to TSHR coated tubes; 0.003 µg/mL, diluted in assay buffer.
Experiment [9] deals with human TSH receptor (full length) coated on ELISA plate wells (human) (UniProt P16473). Put plainly: TSH-biotin binding inhibition ELISA, TSHR coated wells; 1 µg/mL in assay buffer; negative control MAb.
The target in experiment [10] is human thyroid stimulating hormone receptor (TSHR), full length (human) (UniProt P16473). Put plainly: 125I-K1-70 Fab (competitor) binding to TSHR coated tubes; negative control MAb 10 µg/mL in assay buffer.
Experiment [11] has the same target. The experiment can be described thus: 125I-K1-70 Fab (competitor) binding to TSHR coated tubes; negative control MAb 0.001 µg/mL in assay buffer.
Experiment [12] has the same target. Put plainly: 125I-K1-70 Fab (competitor) binding to TSHR coated tubes; negative control MAb 1 µg/mL in HBD serum.
Experiment [13] deals with human TSH receptor (full length) coated on ELISA plate wells (human) (UniProt P16473). Put plainly: TSH-biotin binding inhibition ELISA, TSHR coated wells; 0.1 µg/mL in assay buffer; negative control MAb.
Experiment [14] concerns the target TSHR (thyroid stimulating hormone receptor), full length human (human) (UniProt P16473). The experiment can be described thus: negative control; competitor ^125I-K1-70 IgG, TSHR coated tubes; 10 µg/mL in HBD.
Experiment [15] shares this target. The experiment can be described thus: negative control; competitor ^125I-K1-70 IgG, TSHR coated tubes; 0.1 µg/mL in assay buffer.
Experiment [16] has as its target human thyroid stimulating hormone receptor (TSHR), full length (human) (UniProt P16473). Put plainly: 125I-K1-70 Fab (competitor) binding to TSHR coated tubes; negative control MAb 0.1 µg/mL in assay buffer.
Experiment [17] concerns the target thyroid stimulating hormone receptor (TSHR), full length human TSHR (human) (UniProt P16473). Put plainly: TSH-biotin competition ELISA, TSHR coated wells; negative control, 0.1 µg/mL in assay buffer.
The target of experiment [18] is TSH receptor (full length human TSHR) (human) (UniProt P16473). Put plainly: competition ELISA: inhibition of M22 Fab-peroxidase (competitor) binding to TSHR coated wells; negative control at 0.1 µg/mL diluted in assay buffer.
For experiment [19], the target named is human TSH receptor (full length) coated on ELISA plate wells (human) (UniProt P16473). Put plainly: TSH-biotin binding inhibition ELISA, TSHR coated wells; 1 µg/mL in HBD serum pool.
For experiment [20], the target named is thyroid stimulating hormone receptor (full length human TSHR) (human) (UniProt P16473). The experiment can be described thus: ELISA: inhibition of M22 Fab-peroxidase (competitor) binding to TSHR coated wells; 100 µg/mL, diluted in HBD serum pool.
For experiment [21] the target is unchanged. Put plainly: ELISA: inhibition of M22 Fab-peroxidase (competitor) binding to TSHR coated wells; 0.1 µg/mL, diluted in HBD serum pool.
Experiment [22] has the same target. The experiment can be described thus: ELISA: inhibition of M22 Fab-peroxidase (competitor) binding to TSHR coated wells; 1 µg/mL, diluted in assay buffer.
The target in experiment [23] is TSH receptor (TSHR) coated on tubes (human) (UniProt P16473). Put plainly: inhibition of 125I-K1-70 IgG binding to TSHR coated tubes; sample 10 µg/mL in assay buffer.
The target of experiment [24] is human TSH receptor (full length) coated on ELISA plate wells (human) (UniProt P16473). The experiment can be described thus: TSH-biotin binding inhibition ELISA, TSHR coated wells; 100 µg/mL in assay buffer + 100 µg/mL 5B3 IgG.
For experiment [25], the target named is thyroid stimulating hormone receptor (full length human TSHR) (human) (UniProt P16473). Put plainly: ELISA, inhibition of TSH-biotin binding to TSHR coated wells; 0.01 µg/mL, diluted in assay buffer.
For experiment [26], the target named is human TSH receptor (full length) coated on ELISA plate wells (human) (UniProt P16473). Put plainly: TSH-biotin binding inhibition ELISA, TSHR coated wells; 10 µg/mL in HBD serum pool.
For experiment [27], the target named is TSH receptor (TSHR), full length human, coated on tubes (human) (UniProt P16473). Put plainly: inhibition of 125I-TSH binding to TSHR coated tubes; 0.001 µg/mL, diluted in HBD serum pool.
Experiment [28] deals with human thyroid stimulating hormone receptor (TSHR), full length (human) (UniProt P16473). The experiment can be described thus: 125I-K1-18 Fab competition, TSHR coated tubes; 0.01 µg/mL in HBD.

On to 9D33 IgG (antibody), for which the Inhibition of binding (%) is 40.5% in experiment [1]; 15.8% in experiment [2]; 83.2% in experiment [3]; 76% in experiment [4]; 2.3% in [5]; 62.1% in experiment [6]. In addition, the Inhibition of binding (%) in [7] was 10.1%.

Take M22 IgG (antibody): in experiment [8], the Inhibition of binding (%) was -1.5%.

In the case of 5B3 IgG (antibody), the % inhibition of TSH-biotin binding in experiment [9] is -1%; in [13], -2%. Moreover, the Inhibition of binding (%) is -2.1% in experiment [10]; -1.8% in [11]; -7.8% in experiment [12]; -1.5% in [14]; -1.2% in [15]; 2.2% in experiment [16]. For the same molecule, the Inhibition of binding (%) in experiment [17] is -7.8%; in experiment [18] it was 1.4%.

B1: 5C9 IgG (antibody, from another filing, V domains shown)
VH: EVQLVESGGGLIQPGGSLRLSCAASGFTVSSNYMSWVRQAPGKGLEWVSVTYSGGSTSYADSVKGRFTISRDNSKNTLYLQMNSLRAEDTAVYYCARGGRYCSSISCYARSGCDYWGQGTLVTVSS
VL: AIQMTQSPSSLSASVGDRVTITCRASQSISNYLNWYQQKPGKAPKLLIYAASSLQSGVPSRFSGSGSGTDFTLTISSLQPEDFATYYCQQSYSSPSTTFGQGTKLEIK
As to B1, the % inhibition of TSH-biotin binding was found to be 35.7% in [19], 92.3% in experiment [24] and 42.6% in experiment [26]. For the same molecule, the Inhibition of binding (%) in experiment [20] was 19.6%; in experiment [21], 6.3%; in experiment [22], 12.1%; in [23] it was 84.8%; in [25], 7.5%; in experiment [27] it was -8%. In [28], the Inhibition of binding (%) was determined as 5.7%.
